Biological target: the molecule itself
Assay: SEC

B1: Purβ core tryptic fragment (residues 29–305) (domain or fragment, mouse, UniProt O35295 29-305, looked up)
chain: GGGGGGGGPGGEQETQELASKRLDIQNKRFYLDVKQNAKGRFLKIAEVGAGGSKSRLTLSMAVAAEFRDSLGDFIEHYAQLGPSSPEQLAAGAEEGGGPRRALKSEFLVRENRKYYLDLKENQRGRFLRIRQTVNRGGGGFGGGPGPGGLQSGQTIALPAQGLIEFRDALAKLIDDYGGDEDELAGGPGGGAGGPGGGLYGELPEGTSITVDSKRFFFDVGCNKYGVFLRVSEVKPSYRNAITVPFKAWGKFGGAFCRYADEMKEIQERQRDKLYER
stoichiometry N: 2
